Measured values as given in patent US20070086998A1.

What was measured:
[1] = target: HLA-DR on LG-2 cells (human); assay: cell-based or functional assay
[2] = target: HLA-DR as expressed on the tumor cell line; assay: cell-based or functional assay

Chain of L243 (antibody) (VH): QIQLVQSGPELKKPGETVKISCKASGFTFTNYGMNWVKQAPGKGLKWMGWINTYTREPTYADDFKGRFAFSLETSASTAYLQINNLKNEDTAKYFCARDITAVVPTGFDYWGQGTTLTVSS
Chain of L243 (antibody) (VL): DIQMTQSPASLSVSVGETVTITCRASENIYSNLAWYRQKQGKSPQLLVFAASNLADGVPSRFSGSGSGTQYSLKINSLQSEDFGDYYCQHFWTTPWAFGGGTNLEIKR

L243 (antibody)
% Killing by mAb; LG-2 (DR 1,1); 200 nM, 4 h [1]: 79%
% Killing by mAb; ARH-77 (DR 12); 200 nM, 4 h [2]: 88%
% Killing by mAb; BJAB (DR 12,13); 200 nM, 4 h [2]: 53%
% Killing by mAb; BONNA-12; 200 nM, 4 h [2]: 92%
% Killing by mAb; DOHH-2 (DR 1,2); 200 nM, 4 h [2]: 29%
% Killing by mAb; EOL-1; 200 nM, 4 h [2]: 22%
% Killing by mAb; GRANTA-519 (DR 2,11); 200 nM, 4 h [2]: 83%
% Killing by mAb; HC-1; 200 nM, 4 h [2]: 88%
% Killing by mAb; HD-MY-Z; 200 nM, 4 h [2]: 35%
% Killing by mAb; HDLM-2; 200 nM, 4 h [2]: 77%
% Killing by mAb; KARPAS-299 (DR 1,2); 200 nM, 4 h [2]: 78%
% Killing by mAb; KARPAS-422 (DR 2,4); 200 nM, 4 h [2]: 25%
% Killing by mAb; KM-H2; 200 nM, 4 h [2]: 81%
% Killing by mAb; L1236; 200 nM, 4 h [2]: 52%
% Killing by mAb; L-363; 200 nM, 4 h [2]: 6%
% Killing by mAb; L-428 (DR 12); 200 nM, 4 h [2]: 82%
% Killing by mAb; LP-1; 200 nM, 4 h [2]: 12%
% Killing by mAb; MHH-CALL-4 (DR 1,2); 200 nM, 4 h [2]: 35%
% Killing by mAb; MHH-PREB-1; 200 nM, 4 h [2]: 3%
% Killing by mAb; MN-60 (DR 10,13); 200 nM, 4 h [2]: 46%
% Killing by mAb; NALM-1 (DR 1,4); 200 nM, 4 h [2]: 44%
% Killing by mAb; RAJI (DR 10,17); 200 nM, 4 h [2]: 69%
% Killing by mAb; RPMI-8226; 200 nM, 4 h [2]: 6%
% Killing by mAb; SR-786 (DR 1,2); 200 nM, 4 h [2]: 3%
